For the assay, the target named is rDR5-IgG4-Fc (UniProt O14763). Put plainly: BLI.

pKd: −log10 of the molar value.

1 substance from US20250376532A1 can be followed below.

A word on the pKd: it is the negative decadic logarithm of the Kd, by convention in mol/L. In turn, AMG655 showed a pKd of 9.99.
